B1: Palmitoyltransferase ZDHHC5 (Homo sapiens), Q9C0B5 (parent)
chain: MPAESGKRFKPSKYVPVSAAAIFLVGATTLFFAFTCPGLSLYVSPAVPIYNAIMFLFVLANFSMATFMDPGIFPRAEEDEDKEDDFRAPLYKTVEIKGIQVRMKWCATCRFYRPPRCSHCSVCDNCVEEFDHHCPWVNNCIGRRNYRYFFLFLLSLTAHIMGVFGFGLLYVLYHIEELSGVRTAVTMAVMCVAGLFFIPVAGLTGFHVVLVARGRTTNEQVTGKFRGGVNPFTNGCCNNVSRVLCSSPAPRYLGRPKKEKTIVIRPPFLRPEVSDGQITVKIMDNGIQGELRRTKSKGSLEITESQSADAEPPPPPKPDLSRYTGLRTHLGLATNEDSSLLAKDSPPTPTMYKYRPGYSSSSTSAAMPHSSSAKLSRGDSLKEPTSIAESSRHPSYRSEPSLEPESFRSPTFGKSFHFDPLSSGSRSSSLKSAQGTGFELGQLQSIRSEGTTSTSYKSLANQTRNGSLSYDSLLTPSDSPDFESVQAGPEPDPPLGYTSPFLSARLAQQREAERHPRLVPTGPTHREPSPVRYDNLSRHIVASLQEREKLLRQSPPLPGREEEPGLGDSGIQSTPGSGHAPRTSSSSDDSKRSPLGKTPLGRPAVPRFGKPDGLRGRGVGSPEPGPTAPYLGRSMSYSSQKAQPGVSETEEVALQPLLTPKDEVQLKTTYSKSNGQPKSLGSASPGPGQPPLSSPTRGGVKKVSGVGGTTYEISV

Variants of: B1
Conditions: with spike_sars2 S

Row | Variant | effect of a mutation on the interaction
1 | C134S | with no effect

— IntAct's records for PubMed 35115020
